Earlier results on four substances are cited in paper PMC7290885.

The target of series [1] is GLP-1R (Homo sapiens) (UniProt P43220).
Series [2] has the same target. This is another data set of the same source.
Series [3] has the same target. The source holds these as a separate data set.
Series [4] has the same target. The source holds these as a separate data set.

Like-named read-outs stand apart in the source and are kept apart here.

Chain of UniProt P43220 (P43220 24-463): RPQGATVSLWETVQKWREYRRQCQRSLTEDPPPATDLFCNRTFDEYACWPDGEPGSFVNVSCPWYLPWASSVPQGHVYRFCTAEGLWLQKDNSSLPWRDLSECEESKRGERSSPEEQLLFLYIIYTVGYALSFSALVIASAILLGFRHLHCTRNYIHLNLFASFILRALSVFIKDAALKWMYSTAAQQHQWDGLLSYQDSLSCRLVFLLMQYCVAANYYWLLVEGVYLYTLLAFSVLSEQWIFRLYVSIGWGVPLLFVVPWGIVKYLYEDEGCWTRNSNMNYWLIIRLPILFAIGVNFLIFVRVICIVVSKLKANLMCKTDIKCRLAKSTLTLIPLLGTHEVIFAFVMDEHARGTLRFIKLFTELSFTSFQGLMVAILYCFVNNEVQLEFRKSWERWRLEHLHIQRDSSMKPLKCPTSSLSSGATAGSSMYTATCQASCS

In general, Kd refers to the concentration at which binding is half-saturated. On to “LCA-Di (exendin-4 derivative) (from UniProt P26349)”, for which the Kd in the series with GLP-1R (Homo sapiens) [1] was 71.7 nM.

As for “LCA-M1 (exendin-4 derivative) (from UniProt P26349)”, the Kd with GLP-1R (Homo sapiens) [2] was 0.47 nM.

With “LCA-M2 (exendin-4 derivative) (from UniProt P26349)”, the Kd in the series with GLP-1R (Homo sapiens) [3] is 0.55 nM.

For the substance exendin-4 (from UniProt P26349), the Kd with GLP-1R (Homo sapiens) [4] is 0.14 nM.
